From patent publication US20140087995A1 (published 2014) come the findings set out here.

Numbered stars: 1 amine (or outer) side, 2 acyl side, 3 side chain; on linkers, the order of the positions; unused ones are H or OH. Bridge positions count the residues as written; N and C are the ends. Side chains are listed from the residue outwards. Ends that are not written are not given here. * marks the point of attachment. C20 diacid = O=C(O)CCCCCCCCCCCCCCCCCCC(=O)*; γGlu = O=C(O)[C@H](CCC(=O)[*:2])N[*:1]; AEEA = NCCOCCOCC(=O)O

T1: rat calcitonin receptor (rat, UniProt P32214 25-516)
T1 construct: whole, on cells; Membranes of BHK tk'ts 13 cells transiently transfected with the rat calcitonin receptor; also called rCTR; rat calcitonin (a) receptor
T1 sequence (looked up): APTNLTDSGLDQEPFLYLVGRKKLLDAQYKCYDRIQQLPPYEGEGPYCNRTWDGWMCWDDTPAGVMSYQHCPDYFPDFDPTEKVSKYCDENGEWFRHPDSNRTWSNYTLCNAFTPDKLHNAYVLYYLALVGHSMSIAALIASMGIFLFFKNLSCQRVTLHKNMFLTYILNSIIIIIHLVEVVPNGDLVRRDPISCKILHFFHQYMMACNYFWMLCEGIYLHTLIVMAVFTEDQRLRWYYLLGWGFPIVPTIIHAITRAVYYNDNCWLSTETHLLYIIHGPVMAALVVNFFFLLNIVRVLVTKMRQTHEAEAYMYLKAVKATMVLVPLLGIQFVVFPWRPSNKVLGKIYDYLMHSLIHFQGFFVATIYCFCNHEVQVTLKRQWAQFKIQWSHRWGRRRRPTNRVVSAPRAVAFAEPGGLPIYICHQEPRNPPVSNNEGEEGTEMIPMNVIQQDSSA

T2: rat amylin receptor (rat calcitonin receptor + rat RAMP 3) (rat, UniProt P32214 25-516; Q9JJ73 23-147)
T2 construct: whole, on cells; Membranes of BHK tk'ts 13 cells transiently transfected with the rat calcitonin receptor and rat RAMP 3; also called rAmylin-R; rat amylin 3(a) receptor
T2 sequence (looked up) 1: T1 sequence (looked up)
T2 sequence (looked up) 2: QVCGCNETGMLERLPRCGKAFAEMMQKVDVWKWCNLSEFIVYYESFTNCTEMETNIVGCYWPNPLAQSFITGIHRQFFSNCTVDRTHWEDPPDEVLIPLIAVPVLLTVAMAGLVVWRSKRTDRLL

T3: human calcitonin receptor (human, UniProt P30988 25-474)
T3 construct: whole, on cells; Membranes of a BHK tk'ts 13 cell line stably transfected with the human calcitonin receptor; also called hCTR; hCT
T3 sequence (looked up): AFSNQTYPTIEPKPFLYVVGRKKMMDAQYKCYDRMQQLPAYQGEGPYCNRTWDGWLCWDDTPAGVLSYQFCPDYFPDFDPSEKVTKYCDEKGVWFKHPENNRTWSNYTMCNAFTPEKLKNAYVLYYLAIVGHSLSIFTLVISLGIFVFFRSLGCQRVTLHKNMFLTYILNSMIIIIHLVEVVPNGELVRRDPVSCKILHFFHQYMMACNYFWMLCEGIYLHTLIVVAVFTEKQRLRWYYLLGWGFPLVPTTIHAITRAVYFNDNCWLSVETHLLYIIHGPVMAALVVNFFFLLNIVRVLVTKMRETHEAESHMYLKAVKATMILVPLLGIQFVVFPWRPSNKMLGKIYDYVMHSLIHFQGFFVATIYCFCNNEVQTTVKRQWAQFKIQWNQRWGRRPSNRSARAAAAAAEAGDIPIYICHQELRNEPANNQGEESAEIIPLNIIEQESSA

B1: N^α1-[(4S)-4-carboxy-4-(19-carboxynonadecanoylamino)butanoyl]-[Glu14,Arg17,Pro21,Pro28,Glu35]-h-amylin (peptide)
peptide: {C20 diacid-γGlu}-KCNTATCATQRLAEFLRHSSPNFGAILPSTNVGSETY-NH2
modifications: disulfide 2-7
notes: modifications are with respect to human amylin; also called compound 33
B2: N^α1N^α1-[(4S)-4-carboxy-4-(19-carboxynonadecanoylamino)butanoyl]-[Glu14,Arg17,Pro21,Pro27,Glu35]-h-amylin (peptide)
peptide: {C20 diacid-γGlu}-KCNTATCATQRLAEFLRHSSPNFGAIPSSTNVGSETY-NH2
modifications: disulfide 2-7
SMILES: CC[C@H](C)[C@H](NC(=O)[C@H](C)NC(=O)CNC(=O)[C@H](Cc1ccccc1)NC(=O)[C@H](CC(N)=O)NC(=O)[C@@H]1CCCN1C(=O)[C@H](CO)NC(=O)[C@H](CO)NC(=O)[C@H](Cc1c[nH]cn1)NC(=O)[C@H](CCCNC(=N)N)NC(=O)[C@H](CC(C)C)NC(=O)[C@H](Cc1ccccc1)NC(=O)[C@H](CCC(=O)O)NC(=O)[C@H](C)NC(=O)[C@H](CC(C)C)NC(=O)[C@H](CCCNC(=N)N)NC(=O)[C@H](CCC(N)=O)NC(=O)[C@@H](NC(=O)[C@H](C)NC(=O)[C@@H]1CSSC[C@H](NC(=O)[C@H](CCCCN)NC(=O)CC[C@H](NC(=O)CCCCCCCCCCCCCCCCCCC(=O)O)C(=O)O)C(=O)N[C@@H](CC(N)=O)C(=O)N[C@@H]([C@@H](C)O)C(=O)N[C@@H](C)C(=O)N[C@@H]([C@@H](C)O)C(=O)N1)[C@@H](C)O)C(=O)N1CCC[C@H]1C(=O)N[C@@H](CO)C(=O)N[C@@H](CO)C(=O)N[C@H](C(=O)N[C@@H](CC(N)=O)C(=O)N[C@H](C(=O)NCC(=O)N[C@@H](CO)C(=O)N[C@@H](CCC(=O)O)C(=O)N[C@H](C(=O)N[C@@H](Cc1ccc(O)cc1)C(N)=O)[C@@H](C)O)C(C)C)[C@@H](C)O
notes: modifications are with respect to human amylin; also called compound 22
B3: N^α1-[(4S)-4-carboxy-4-(19-carboxynonadecanoylamino)butanoyl]-[His14,Arg17,Pro21,Pro27,Glu35]-h-amylin (peptide)
peptide: {C20 diacid-γGlu}-KCNTATCATQRLAHFLRHSSPNFGAIPSSTNVGSETY-NH2
modifications: disulfide 2-7
SMILES: CC[C@H](C)[C@H](NC(=O)[C@H](C)NC(=O)CNC(=O)[C@H](Cc1ccccc1)NC(=O)[C@H](CC(N)=O)NC(=O)[C@@H]1CCCN1C(=O)[C@H](CO)NC(=O)[C@H](CO)NC(=O)[C@H](Cc1c[nH]cn1)NC(=O)[C@H](CCCNC(=N)N)NC(=O)[C@H](CC(C)C)NC(=O)[C@H](Cc1ccccc1)NC(=O)[C@H](Cc1c[nH]cn1)NC(=O)[C@H](C)NC(=O)[C@H](CC(C)C)NC(=O)[C@H](CCCNC(=N)N)NC(=O)[C@H](CCC(N)=O)NC(=O)[C@@H](NC(=O)[C@H](C)NC(=O)[C@@H]1CSSC[C@H](NC(=O)[C@H](CCCCN)NC(=O)CC[C@H](NC(=O)CCCCCCCCCCCCCCCCCCC(=O)O)C(=O)O)C(=O)N[C@@H](CC(N)=O)C(=O)N[C@@H]([C@@H](C)O)C(=O)N[C@@H](C)C(=O)N[C@@H]([C@@H](C)O)C(=O)N1)[C@@H](C)O)C(=O)N1CCC[C@H]1C(=O)N[C@@H](CO)C(=O)N[C@@H](CO)C(=O)N[C@H](C(=O)N[C@@H](CC(N)=O)C(=O)N[C@H](C(=O)NCC(=O)N[C@@H](CO)C(=O)N[C@@H](CCC(=O)O)C(=O)N[C@H](C(=O)N[C@@H](Cc1ccc(O)cc1)C(N)=O)[C@@H](C)O)C(C)C)[C@@H](C)O
notes: modifications are with respect to human amylin; also called compound 30
B4: N^ε1-[2-[2-[2-[[2-[2-[2-[[(4S)-4-carboxy-4-(19-carboxynonadecanoylamino)butanoyl]amino]ethoxy]ethoxy]acetyl]amino]ethoxy]ethoxy]acetyl]-[Arg17,Pro21,Pro27,Glu35 … (peptide)
peptide: K([AEEA-AEEA-γGlu-C20 diacid])CNTATCATQRLANFLRHSSPNFGAIPSSTNVGSETY-NH2
modifications: disulfide 2-7; N-terminus assumed
SMILES: CC[C@H](C)[C@H](NC(=O)[C@H](C)NC(=O)CNC(=O)[C@H](Cc1ccccc1)NC(=O)[C@H](CC(N)=O)NC(=O)[C@@H]1CCCN1C(=O)[C@H](CO)NC(=O)[C@H](CO)NC(=O)[C@H](Cc1c[nH]cn1)NC(=O)[C@H](CCCNC(=N)N)NC(=O)[C@H](CC(C)C)NC(=O)[C@H](Cc1ccccc1)NC(=O)[C@H](CC(N)=O)NC(=O)[C@H](C)NC(=O)[C@H](CC(C)C)NC(=O)[C@H](CCCNC(=N)N)NC(=O)[C@H](CCC(N)=O)NC(=O)[C@@H](NC(=O)[C@H](C)NC(=O)[C@@H]1CSSC[C@H](NC(=O)[C@@H](N)CCCCNC(=O)COCCOCCNC(=O)COCCOCCNC(=O)CC[C@H](NC(=O)CCCCCCCCCCCCCCCCCCC(=O)O)C(=O)O)C(=O)N[C@@H](CC(N)=O)C(=O)N[C@@H]([C@@H](C)O)C(=O)N[C@@H](C)C(=O)N[C@@H]([C@@H](C)O)C(=O)N1)[C@@H](C)O)C(=O)N1CCC[C@H]1C(=O)N[C@@H](CO)C(=O)N[C@@H](CO)C(=O)N[C@H](C(=O)N[C@@H](CC(N)=O)C(=O)N[C@H](C(=O)NCC(=O)N[C@@H](CO)C(=O)N[C@@H](CCC(=O)O)C(=O)N[C@H](C(=O)N[C@@H](Cc1ccc(O)cc1)C(N)=O)[C@@H](C)O)C(C)C)[C@@H](C)O
notes: modifications are with respect to human amylin; also called compound 25
B5: N^ε1-[2-[2-[2-[[(4S)-4-carboxy-4-(19-carboxynonadecanoylamino)butanoyl]amino]ethoxy]ethoxy]acetyl]-[Arg17,Pro21,Pro27,Glu35]-h-amylin (peptide)
peptide: K([AEEA-γGlu-C20 diacid])CNTATCATQRLANFLRHSSPNFGAIPSSTNVGSETY-NH2
modifications: disulfide 2-7; N-terminus assumed
SMILES: CC[C@H](C)[C@H](NC(=O)[C@H](C)NC(=O)CNC(=O)[C@H](Cc1ccccc1)NC(=O)[C@H](CC(N)=O)NC(=O)[C@@H]1CCCN1C(=O)[C@H](CO)NC(=O)[C@H](CO)NC(=O)[C@H](Cc1c[nH]cn1)NC(=O)[C@H](CCCNC(=N)N)NC(=O)[C@H](CC(C)C)NC(=O)[C@H](Cc1ccccc1)NC(=O)[C@H](CC(N)=O)NC(=O)[C@H](C)NC(=O)[C@H](CC(C)C)NC(=O)[C@H](CCCNC(=N)N)NC(=O)[C@H](CCC(N)=O)NC(=O)[C@@H](NC(=O)[C@H](C)NC(=O)[C@@H]1CSSC[C@H](NC(=O)[C@@H](N)CCCCNC(=O)COCCOCCNC(=O)CC[C@H](NC(=O)CCCCCCCCCCCCCCCCCCC(=O)O)C(=O)O)C(=O)N[C@@H](CC(N)=O)C(=O)N[C@@H]([C@@H](C)O)C(=O)N[C@@H](C)C(=O)N[C@@H]([C@@H](C)O)C(=O)N1)[C@@H](C)O)C(=O)N1CCC[C@H]1C(=O)N[C@@H](CO)C(=O)N[C@@H](CO)C(=O)N[C@H](C(=O)N[C@@H](CC(N)=O)C(=O)N[C@H](C(=O)NCC(=O)N[C@@H](CO)C(=O)N[C@@H](CCC(=O)O)C(=O)N[C@H](C(=O)N[C@@H](Cc1ccc(O)cc1)C(N)=O)[C@@H](C)O)C(C)C)[C@@H](C)O
notes: modifications are with respect to human amylin; also called compound 26

One test deals with T1, rat calcitonin receptor. The experiment in a line: SPA competition vs 125I-calcitonin, membranes with rat CTR (Assay VIII).
On to B1, for which the IC50 came out at 28.9 nM.

As for B2, the concentration for half-maximal inhibition (IC50) turned out to be 62.5 nM.

As to B3, the 50% inhibitory concentration (IC50) came out at 114 nM.

Regarding B4, the IC50 amounted to 131 nM.

With B5, the concentration for half-maximal inhibition (IC50) was 152 nM.

The target of another test is T1, rat calcitonin receptor. The experiment in a line: IC50 at rCTR divided by IC50 at rAmylin-R (reference).
As for B1, the “Ratio rCT/rAmylin binding” value was found to be 12.6.

On to B2, for which the “Ratio rCT/rAmylin binding” value was found to be 28.5.

Consider B3, for which the “Ratio rCT/rAmylin binding” value was determined as 36.1.

Turning to B4, the “Ratio rCT/rAmylin binding” value stood at 37.7.

For B5, the “Ratio rCT/rAmylin binding” value turned out to be 309.

The target in another test is T2, rat amylin receptor (rat calcitonin …). In words: SPA competition vs 125I-rat amylin, membranes with rat CTR + rat RAMP3 (Assay VI).
On to B1, for which the half-inhibitory concentration (IC50) was 2.29 nM.

For B2, the 50% inhibitory concentration (IC50) amounted to 2.19 nM.

As for B3, the IC50 amounted to 3.14 nM.

Turning to B4, the concentration for half-maximal inhibition (IC50) came to 3.48 nM.

For B5, the IC50 is 0.491 nM.

The target in the next test is T3, human calcitonin receptor. The experiment in a line: IC50 at hCTR divided by IC50 at hAmylin-R (reference). Put shortly:
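Scintillation proximity competition binding on cell membranes at 35 ng/μL with SPA beads, in 50 mM Hepes pH 7.4, 1 mM CaCl2, 5 mM MgCl₂, 0.1% OA, 0.02% Tween20. Incubated 120 min at 25° C with shaking. IC₅₀ from one-site competition fit.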
Regarding B1, the “Ratio hCT/hAmylin binding” value was found to be 3.9.

For the molecule B2, the “Ratio hCT/hAmylin binding” value is 12.3.

For the molecule B3, the “Ratio hCT/hAmylin binding” value is 23.6.

Regarding B4, the “Ratio hCT/hAmylin binding” value was 56.5.

For the molecule B5, the “Ratio hCT/hAmylin binding” value stood at 47.5.
